B1: J-11 (antibody, human IgG4 S228P, kappa, V domains shown)
VH: QVQLQQSGAELMKPGASVKLSCKATGYILTGYWIEWVKQRPGHGLEWIGEILPGSGSTNYNENFKGKATFTADTSSNTAYMQLSSLTTEDSAIYYCARAVLGYFDYWGQGTTLTVSS
VL: DIVMTQSHKFMSTSVGDRVSITCKASQDVSTAVAWYQQKPGQSPKLLIYWASTRHTGVPDRFTGSGSGTDYTLTISSVQAEDLALYYCHQHYSTYTFGGGTKLEIKR
notes: Human IgG4 chimera of murine origin; also called J-11.h
B2: J-17 (antibody, human IgG4 S228P, kappa, V domains shown)
VH: QIQLVQSGPELKKPGETVKISCKASGYTFTTYGLSWVKQTPGKGLKWMGWINTYSGVPTYTDDFKGRFAFSLETSASTAYLQINNLKNEDTATYFCARPYDFDQVGFAYWGQGTLVTVSA
VL: SIVMTQTPKFLLVSAGDRVSITCKASQTVSSDVAWYQQKAGQSPKLLIYYASNRYTGVPDRFTGSGYGTDFTFTISTVQAEDLAVYFCQQDYSSPFTFGGGSKLEIKR
notes: Human IgG4 chimera of murine origin; also called J-17.h
B3: J-19 (antibody, human IgG4 S228P, kappa, V domains shown)
VH: QVTLKESGPGILQPSHTLSLTCSFSGFSLNTYAMGVSWIRQPSGKGLEWLASIWWNGNKYNNPSLKSRLTVSKDTSNNQAFLKVTSVDTADTATYYCAHSRIIRFTDYVMDAWGQGASVTVSS
VL: DIQMTQSPASLSTFLGEPVTIECRASEDIYNDLAWYQQKPGKSPQLLIYNANSLHTGVPSRFSGSGSGTQYSLKINSLQSEDVASYFCQQYYDYPLTFGSGTKLEIKR
notes: Human IgG4 chimera from a rat immunization; also called J-19.h

Assays:
human LILRA2 = biological target: T1, human LILRA2 (human, UniProt Q8N149 24-483); experiment: flow cytometry, LILRA2 CHOs
T1 construct: Over-expressed on CHO-s cells; also called hLILRA2

human LILRB3 = biological target: T2, human LILRB3 (human, UniProt O75022 24-631); experiment: flow cytometry, LILRB3 CHOs
T2 construct: Over-expressed on CHO-s cells; also called hLILRB3

[1] = biological target: T3, human LILRB2 expressed on cells (human, UniProt Q8N423 22-597); experiment: cell-based or functional assay
human LILRA1 = biological target: T4, human LILRA1 (human, UniProt O75019 17-489); experiment: flow cytometry, LILRA1 CHOs
T4 construct: Over-expressed on CHO-s cells; also called hLILRA1

[2] = biological target: T3, human LILRB2 expressed on cells; experiment: blocking of HLA-A2 tetramer on LILRB2 CHOs, flow cytometry, mAb 10 ug/mL
Protocol: (§1) In the secondary screen, 1×10⁵ CHO-s cells over-expressing human LILRB2 were plated in 96-well round-bottom tissue culture-treated plate and washed twice with 1×DPBS (Gibco) and incubated with 10 μg/mL primary antibody (anti-LILRB2 mAbs or control) prepared in 50 μL FACS buffer (1×DPBS containing 2% HI-FBS (Sigma)+0.05% Sodium Azide). After incubation with mAbs for 30 minutes at 4° C., cells were washed twice in FACS buffer and then resuspended in 50 μL of FACS buffer containing 5 μg/mL APC-conjugated HLA-A2 or HLA-G tetramer (Fred Hutch). Cells were incubated protected from light for 30-60 minutes at 4° C. After incubation with tetramer, cells were washed in FACS buffer and re-suspended in fix buffer (1.5% paraformaldehyde diluted in 1×DPBS). Samples were analyzed using the Celesta flow cytometer analyzer (BD Biosciences). Data represent percent tetramer blocked by mAbs relative to tetramer alone, calculated according to the following equation: […]

[3] = biological target: T3, human LILRB2 expressed on cells; experiment: flow cytometry, human whole blood, neutrophils
[4] = biological target: T3, human LILRB2 expressed on cells; experiment: flow cytometry, human whole blood, monocytes
[5] = biological target: T5, Cyno Monocytes / Cyno Neutrophils (Macaca fascicularis); experiment: flow cytometry, cyno whole blood, neutrophils
T5 construct: cell surface, primary blood cells; also called LILRB2+ populations in cyno whole blood

[6] = biological target: T5, Cyno Monocytes / Cyno Neutrophils; experiment: flow cytometry, cyno whole blood, monocytes
human LILRB2-His = human LILRB2-His (human, UniProt Q8N423 22-460); experiment: SPR, Sierra Sensors MASS-2; antibody captured on anti-human Fc, LILRB2-His 65 to 0.27 nM, 1:1 Langmuir fit
Protocol: Using a Mass-2 (Sierra Sensors) high capacity amine chip preimmobilized with AffiniPure Goat Anti-Human IgG, Fcγ Fragment Specific antibody, humanized antibodies were captured on the anti-human surface and then binding to human LILRB2-His was measured by flowing six different concentrations from 65 to 0.27 nM of the analyte over the antibody surface. The anti-LILRB2 surface was removed (10 mM Glycine, pH 2.0) and recaptured between all concentrations or buffer only cycles. The data was analyzed using the Sierra Analyzer software (version 3.1.14). All curves were double subtracted and fit to a 1:1 Langmuir Fit.

human LILRA6 = biological target: T6, human LILRA6 (human, UniProt Q6PI73 24-481); experiment: flow cytometry, LILRA6 CHOs
T6 construct: Over-expressed on CHO-s cells; also called hLILRA6

[7] = biological target: T7, Rhesus Monocytes / Rhesus Neutrophils (Macaca mulatta); experiment: flow cytometry, rhesus whole blood, monocytes
T7 construct: cell surface, primary blood cells; also called LILRB2+ populations in rhesus whole blood

human LILRB5 = biological target: T8, human LILRB5 (human, UniProt O75023 24-590); experiment: flow cytometry, LILRB5 CHOs
T8 construct: Over-expressed on CHO-s cells; also called hLILRB5

[8] = biological target: T7, Rhesus Monocytes / Rhesus Neutrophils; experiment: flow cytometry, rhesus whole blood, neutrophils
human LILRB4 = biological target: T9, human LILRB4 (human, UniProt Q8NHJ6 22-448); experiment: flow cytometry, LILRB4 CHOs
T9 construct: Over-expressed on CHO-s cells; also called hLILRB4

human LILRA3 = biological target: T10, human LILRA3 (human, UniProt Q8N6C8 24-439); experiment: flow cytometry, LILRA3 CHOs
T10 construct: Over-expressed on CHO-s cells; also called hLILRA3

[9] = biological target: T3, human LILRB2 expressed on cells; experiment: flow cytometry, LILRB2 CHOs
human LILRA5 = biological target: T11, human LILRA5 (human, UniProt A6NI73 42-299); experiment: flow cytometry, LILRA5 CHOs
T11 construct: Over-expressed on CHO-s cells; also called hLILRA5

[10] = biological target: T3, human LILRB2 expressed on cells; experiment: blocking of HLA-G tetramer on LILRB2 CHOs, flow cytometry, mAb 10 ug/mL
Protocol: as §1

human LILRA4 = biological target: T12, human LILRA4 (human, UniProt P59901 24-499); experiment: flow cytometry, LILRA4 CHOs
T12 construct: Over-expressed on CHO-s cells; also called hLILRA4

human LILRB1 = biological target: T13, human LILRB1 (human, UniProt Q8NHL6 24-650); experiment: flow cytometry, LILRB1 CHOs
T13 construct: Over-expressed on CHO-s cells; also called hLILRB1
T13 sequence (Q8NHL6 24-650 limits assumed): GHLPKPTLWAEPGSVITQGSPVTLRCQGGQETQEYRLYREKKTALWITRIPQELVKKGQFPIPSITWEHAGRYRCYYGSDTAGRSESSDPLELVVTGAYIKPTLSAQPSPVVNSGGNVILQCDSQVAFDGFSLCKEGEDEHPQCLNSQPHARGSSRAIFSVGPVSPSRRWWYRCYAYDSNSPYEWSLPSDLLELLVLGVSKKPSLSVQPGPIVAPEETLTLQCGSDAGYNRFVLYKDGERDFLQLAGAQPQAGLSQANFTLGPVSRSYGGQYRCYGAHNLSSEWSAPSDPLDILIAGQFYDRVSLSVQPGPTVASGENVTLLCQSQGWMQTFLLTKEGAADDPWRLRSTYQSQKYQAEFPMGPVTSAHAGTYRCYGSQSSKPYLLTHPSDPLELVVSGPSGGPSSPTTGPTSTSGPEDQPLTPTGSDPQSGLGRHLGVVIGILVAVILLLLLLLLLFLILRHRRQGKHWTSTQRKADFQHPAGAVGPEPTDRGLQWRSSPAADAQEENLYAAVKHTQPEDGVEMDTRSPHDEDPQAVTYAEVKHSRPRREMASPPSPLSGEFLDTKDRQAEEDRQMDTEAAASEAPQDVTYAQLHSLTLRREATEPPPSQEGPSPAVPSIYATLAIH

T6 sequence (Q6PI73 24-481 limits assumed): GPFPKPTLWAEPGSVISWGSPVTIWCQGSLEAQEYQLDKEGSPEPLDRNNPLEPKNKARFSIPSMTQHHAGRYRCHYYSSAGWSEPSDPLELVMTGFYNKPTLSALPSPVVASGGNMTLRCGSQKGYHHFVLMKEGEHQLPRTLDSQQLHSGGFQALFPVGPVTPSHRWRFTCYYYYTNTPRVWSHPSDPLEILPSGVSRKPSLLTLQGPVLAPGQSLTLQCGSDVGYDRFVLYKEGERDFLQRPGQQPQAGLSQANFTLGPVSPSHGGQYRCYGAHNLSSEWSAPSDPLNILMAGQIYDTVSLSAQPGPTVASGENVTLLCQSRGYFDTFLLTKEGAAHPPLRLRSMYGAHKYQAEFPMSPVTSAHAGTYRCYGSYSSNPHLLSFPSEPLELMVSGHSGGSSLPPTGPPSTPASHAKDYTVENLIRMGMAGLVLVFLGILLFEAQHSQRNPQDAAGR
T4 sequence (O75019 17-489 limits assumed): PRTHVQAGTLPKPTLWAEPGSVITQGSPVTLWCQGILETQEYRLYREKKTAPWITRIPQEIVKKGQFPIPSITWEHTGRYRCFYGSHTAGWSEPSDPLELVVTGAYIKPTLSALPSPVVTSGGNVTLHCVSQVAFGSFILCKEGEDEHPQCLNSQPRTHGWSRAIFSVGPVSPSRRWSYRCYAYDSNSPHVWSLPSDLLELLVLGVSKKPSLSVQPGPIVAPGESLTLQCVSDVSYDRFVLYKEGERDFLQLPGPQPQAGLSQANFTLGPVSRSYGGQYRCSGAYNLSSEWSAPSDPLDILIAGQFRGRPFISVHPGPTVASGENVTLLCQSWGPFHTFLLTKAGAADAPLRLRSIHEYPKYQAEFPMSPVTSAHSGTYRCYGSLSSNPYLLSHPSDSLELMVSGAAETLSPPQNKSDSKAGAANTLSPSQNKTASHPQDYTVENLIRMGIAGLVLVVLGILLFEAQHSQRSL
T1 sequence (Q8N149 24-483 S135L limits assumed): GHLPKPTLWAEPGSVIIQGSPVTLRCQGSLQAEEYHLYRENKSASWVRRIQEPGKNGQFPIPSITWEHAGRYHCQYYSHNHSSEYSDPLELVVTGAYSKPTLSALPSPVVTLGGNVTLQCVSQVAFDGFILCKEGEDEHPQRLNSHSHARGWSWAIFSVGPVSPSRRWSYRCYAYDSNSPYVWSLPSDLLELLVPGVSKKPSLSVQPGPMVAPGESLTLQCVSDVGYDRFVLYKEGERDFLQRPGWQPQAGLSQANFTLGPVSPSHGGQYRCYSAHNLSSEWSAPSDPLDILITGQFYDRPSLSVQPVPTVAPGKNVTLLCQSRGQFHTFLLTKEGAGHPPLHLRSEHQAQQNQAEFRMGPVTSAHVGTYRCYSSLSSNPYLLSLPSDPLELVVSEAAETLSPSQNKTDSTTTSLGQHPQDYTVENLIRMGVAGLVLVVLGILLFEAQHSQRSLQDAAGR
T8 sequence (O75023 24-590 P542R limits assumed): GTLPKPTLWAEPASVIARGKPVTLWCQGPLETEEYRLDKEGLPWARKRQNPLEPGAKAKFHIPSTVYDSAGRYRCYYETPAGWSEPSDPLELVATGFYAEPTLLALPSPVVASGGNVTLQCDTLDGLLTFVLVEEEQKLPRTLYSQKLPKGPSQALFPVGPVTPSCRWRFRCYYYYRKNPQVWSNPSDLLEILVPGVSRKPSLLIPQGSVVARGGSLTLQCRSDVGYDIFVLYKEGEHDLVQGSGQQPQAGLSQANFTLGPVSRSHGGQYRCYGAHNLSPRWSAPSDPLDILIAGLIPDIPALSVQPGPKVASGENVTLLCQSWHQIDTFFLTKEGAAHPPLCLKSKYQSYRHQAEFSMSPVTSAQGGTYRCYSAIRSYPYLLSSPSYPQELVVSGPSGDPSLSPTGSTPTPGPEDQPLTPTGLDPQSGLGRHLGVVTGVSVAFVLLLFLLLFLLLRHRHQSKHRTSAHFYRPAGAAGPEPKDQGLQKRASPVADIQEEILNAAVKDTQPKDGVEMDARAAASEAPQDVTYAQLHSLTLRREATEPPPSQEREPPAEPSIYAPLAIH
T3 sequence (Q8N423 other isoform, or with tags, fused parts or gaps limits assumed): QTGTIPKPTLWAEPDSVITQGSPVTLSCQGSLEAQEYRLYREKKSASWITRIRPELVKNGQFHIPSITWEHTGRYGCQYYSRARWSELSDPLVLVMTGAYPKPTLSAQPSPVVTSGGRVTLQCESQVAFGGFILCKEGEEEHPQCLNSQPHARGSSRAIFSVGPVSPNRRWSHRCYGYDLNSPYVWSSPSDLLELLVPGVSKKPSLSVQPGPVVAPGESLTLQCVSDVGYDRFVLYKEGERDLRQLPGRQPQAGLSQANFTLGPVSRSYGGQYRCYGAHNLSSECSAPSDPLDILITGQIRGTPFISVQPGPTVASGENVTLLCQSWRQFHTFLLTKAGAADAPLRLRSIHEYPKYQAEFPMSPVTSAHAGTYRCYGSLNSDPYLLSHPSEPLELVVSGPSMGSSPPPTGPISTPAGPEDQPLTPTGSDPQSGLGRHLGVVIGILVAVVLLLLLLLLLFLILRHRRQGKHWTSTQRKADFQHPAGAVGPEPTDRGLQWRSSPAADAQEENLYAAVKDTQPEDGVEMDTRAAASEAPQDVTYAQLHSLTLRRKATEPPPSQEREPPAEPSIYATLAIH
T11 sequence (A6NI73 42-299 limits assumed): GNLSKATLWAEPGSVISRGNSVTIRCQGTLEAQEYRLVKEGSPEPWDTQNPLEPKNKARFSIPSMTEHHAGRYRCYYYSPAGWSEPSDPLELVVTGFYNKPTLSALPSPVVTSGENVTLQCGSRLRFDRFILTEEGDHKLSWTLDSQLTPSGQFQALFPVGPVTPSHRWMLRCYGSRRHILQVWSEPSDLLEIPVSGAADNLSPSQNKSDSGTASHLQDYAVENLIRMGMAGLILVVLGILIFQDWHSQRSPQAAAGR
Sequence of human LILRB2-His (Q8N423 other isoform, or with tags, fused parts or gaps): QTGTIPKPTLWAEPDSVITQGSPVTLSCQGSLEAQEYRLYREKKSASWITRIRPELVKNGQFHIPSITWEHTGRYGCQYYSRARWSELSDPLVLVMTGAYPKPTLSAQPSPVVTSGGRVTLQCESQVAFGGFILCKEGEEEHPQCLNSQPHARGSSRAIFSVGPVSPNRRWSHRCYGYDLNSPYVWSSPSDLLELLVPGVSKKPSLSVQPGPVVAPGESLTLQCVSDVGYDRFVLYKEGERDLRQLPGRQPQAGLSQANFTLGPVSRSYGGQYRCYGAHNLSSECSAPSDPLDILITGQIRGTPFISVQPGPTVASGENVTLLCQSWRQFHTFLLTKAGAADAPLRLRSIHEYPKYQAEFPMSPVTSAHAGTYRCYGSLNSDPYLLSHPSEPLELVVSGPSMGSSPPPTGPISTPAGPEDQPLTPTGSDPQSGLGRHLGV
T12 sequence (P59901 other isoform, or with tags, fused parts or gaps limits assumed): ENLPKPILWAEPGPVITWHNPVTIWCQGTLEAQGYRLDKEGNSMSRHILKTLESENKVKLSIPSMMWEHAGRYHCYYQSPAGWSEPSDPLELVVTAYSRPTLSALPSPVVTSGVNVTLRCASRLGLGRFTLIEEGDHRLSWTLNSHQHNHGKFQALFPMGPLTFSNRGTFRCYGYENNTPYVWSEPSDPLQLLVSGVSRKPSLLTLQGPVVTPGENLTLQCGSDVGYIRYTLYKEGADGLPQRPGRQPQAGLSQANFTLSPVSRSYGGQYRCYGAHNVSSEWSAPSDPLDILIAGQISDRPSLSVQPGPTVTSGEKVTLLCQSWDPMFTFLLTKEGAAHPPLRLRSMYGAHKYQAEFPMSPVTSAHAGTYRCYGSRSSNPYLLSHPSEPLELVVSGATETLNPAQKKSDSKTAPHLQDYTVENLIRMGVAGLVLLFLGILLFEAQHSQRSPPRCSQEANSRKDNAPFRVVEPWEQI
T10 sequence (Q8N6C8 24-439 limits assumed): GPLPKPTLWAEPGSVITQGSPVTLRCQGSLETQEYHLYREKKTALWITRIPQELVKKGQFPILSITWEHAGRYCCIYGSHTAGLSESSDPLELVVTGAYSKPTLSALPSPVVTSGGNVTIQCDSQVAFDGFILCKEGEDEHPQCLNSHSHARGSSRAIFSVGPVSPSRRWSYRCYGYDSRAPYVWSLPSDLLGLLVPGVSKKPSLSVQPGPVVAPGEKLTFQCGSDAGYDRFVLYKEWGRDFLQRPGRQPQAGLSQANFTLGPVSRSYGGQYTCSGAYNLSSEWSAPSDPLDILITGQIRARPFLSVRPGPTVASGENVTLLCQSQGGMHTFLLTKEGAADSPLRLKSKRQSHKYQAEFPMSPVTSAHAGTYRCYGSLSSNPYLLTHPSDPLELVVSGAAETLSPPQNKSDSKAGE

Binder | binding (fold over iso) (human LILRA2) | binding result (human LILRA2) | binding (fold over iso) (human LILRB3) | binding result (human LILRB3) | CCL2 production (fold over LPS alone) [1] [fold over LPS alone] | IL-6 production (fold over LPS alone) [1] [fold over LPS alone] | IL-10 production (fold over LPS alone) [1] [fold over LPS alone] | TNFa production (fold over LPS alone) [1] [fold over LPS alone] | HLA-A2:LILRB2 CHOs blocking (% blocked) [2] [% blocked] | Human Neutrophils binding (fold over iso) [3] [fold over iso] | Human Monocytes binding (fold over iso) [4] [fold over iso] | Cyno Neutrophils binding (fold over iso) [5] [fold over iso] | Cyno Monocytes binding (fold over iso) [6] [fold over iso] | Kd (human LILRB2-His) [nM] | kon (human LILRB2-His) [M⁻¹ s⁻¹] | binding (fold over iso) (human LILRA6) | binding result (human LILRA6) | Rhesus Monocytes binding (fold over iso) [7] [fold over iso] | binding (fold over iso) (human LILRB5) | binding result (human LILRB5) | other results
B1 | -2.52 | no binding | 1.09 | no binding | 0.96 | 3.06 | 0.81 | 7.61 | 94.4 | 2.89 | 8.54 | 0.94 | 0.71 | 2.47 | 370000 | 1 | no binding | 0.88 | 1.22 | no binding | binding (fold over iso) (human LILRA1): -1.63 fold over iso; binding result (human LILRA1): no binding; koff (human LILRB2-His): 0.000913 s⁻¹; Rhesus Neutrophils binding (fold over iso) [8]: 0.64 fold over iso; binding (fold over iso) (human LILRB4): 1.03 fold over iso; binding result (human LILRB4): no binding; binding (fold over iso) (human LILRA3): 1.02 fold over iso; binding result (human LILRA3): no binding; binding (fold over iso) [9]: 3.49 fold over iso; binding (fold over iso) (human LILRA5): 1.34 fold over iso; binding result (human LILRA5): no binding; HLA-G:LILRB2 CHOs blocking (% blocked) [10]: 99.9 % blocked; binding (fold over iso) (human LILRA4): -1.27 fold over iso; binding result (human LILRA4): no binding; binding (fold over iso) (human LILRB1): 1.07 fold over iso; binding result (human LILRB1): no binding
B2 | -1.05 | no binding | 0.99 | no binding | 1.85 | 2.57 | 0.89 | 8.12 | 93.4 | 4.55 | 11.3 | 0.87 | 0.92 | 2.85 | 1.56e+06 | 0.94 | no binding | 1.41 | 1.03 | no binding | Rhesus Neutrophils binding (fold over iso) [8]: 1.44 fold over iso; binding (fold over iso) (human LILRB4): 1 fold over iso; binding result (human LILRB4): no binding; binding (fold over iso) (human LILRA3): 1.35 fold over iso; binding result (human LILRA3): no binding; binding (fold over iso) [9]: 3.68 fold over iso; binding (fold over iso) (human LILRA5): 0.82 fold over iso; binding result (human LILRA5): no binding; HLA-G:LILRB2 CHOs blocking (% blocked) [10]: 96.6 % blocked; binding (fold over iso) (human LILRA4): -36.5 fold over iso; binding result (human LILRA4): no binding; binding (fold over iso) (human LILRB1): 1.05 fold over iso; binding result (human LILRB1): no binding
B3 | -0.51 | no binding | 1.09 | no binding | 1.69 | 2.72 | 0.8 | 8.9 | 95.3 | 4.5 | 12.3 | 2.35 | 17.9 | 2.62 | 515000 | 1.07 | no binding | 6.79 | 1.19 | no binding | binding (fold over iso) (human LILRA1): -3.31 fold over iso; binding result (human LILRA1): no binding; koff (human LILRB2-His): 0.00135 s⁻¹; Rhesus Neutrophils binding (fold over iso) [8]: 21.9 fold over iso; binding (fold over iso) (human LILRB4): 1.03 fold over iso; binding result (human LILRB4): no binding; binding (fold over iso) (human LILRA3): 0.97 fold over iso; binding result (human LILRA3): no binding; binding (fold over iso) [9]: 3.78 fold over iso; binding (fold over iso) (human LILRA5): -0.62 fold over iso; binding result (human LILRA5): no binding; HLA-G:LILRB2 CHOs blocking (% blocked) [10]: 97 % blocked; binding (fold over iso) (human LILRA4): -26.8 fold over iso; binding result (human LILRA4): no binding; binding (fold over iso) (human LILRB1): 1.05 fold over iso; binding result (human LILRB1): no binding
